Assay [1] has as its system glutamine synthetase of E.coli. The note with it: DTT/Fe3+/O2 oxidative system, 3 mM activator, 10 min at 37° C.; FIG. 3.
Experimental: Comparison of the protector properties of recombinant full-size Prx Vlhum with the protector properties of natural rat Prx VIrat and with the protector properties of N-terminal ΔPrx V1hum in terms of protecting glutamine synthetase of E.coli from inactivation in a model oxidative system in vitro.
For determining the activity of different types of peroxiredoxins, their ability to protect glutamine synthetase from the DTT/Fe^+3/O2 oxidative system is measured. Glutamine synthetase is isolated from cells of the E.coli DH5α strain (Streicher S. L., Tyler B., 1980) and inactivated in the presence of a Fe^3+/O2 oxidative system and a peroxiredoxin activator—in the model oxidative system generating free radicals (Kim K. et al., 1988). […] The residual activity of glutamine synthetase is assessed by adding to the sample 200 μl of a reaction mixture which comprises: ADP, 0.4 mM; glutamine, 150 mM; K—AsO4, 10 mM; NH2OH, 20 mM; MnCl2, 0.4 mM; HEPES, 100 mM, pH 7.4. […] The protector properties of peroxiredoxin for protecting glutamine synthetase of E.coli from inactivation are determined as the ratio of the remaining activity of the enzyme after the inactivation in the presence of different concentrations of peroxiredoxin to the activity of non-inactivated glutamine synthetase.
Assay [2] relates to tracheal epithelium of rat after application of lipopolysaccharide. Briefly: Inflammation of rat tracheal epithelium caused by lipopolysaccharide (LPS). It is filed as in vivo. On the procedure:
The therapeutic properties of peroxiredoxin Prx VI in treating the upper respiratory tract of rat immediately after the application of LPS were checked on a group of 4 Wistar line rats weighing 150-200 grams. The application of LPS was carried out in the following manner. The rats were anesthetized with hexenal, and 100 μl of a lipopolysaccharide solution were introduced through a catheter (the lipopolysaccharide concentration was from 10^−9 to 10^−11 mg/ml, the total number of the used animals was 20). After the application of the lipopolysaccharide, the rats were maintained for a definite period of time (1 hour, 3 hours, 6 hours, 7 hours, 9 hours), then narcotized with hexenal (300 mg/kg weight), and a sample of the tracheal epithelial tissue was isolated. For histochemical investigations the isolated sample was placed into a fixing solution containing 2% of formaldehyde and 0.5% of glutaraldehyde. The tissue was dehydrated by sequential routing through ethyl alcohol with increasing concentration (40-100%). The tissue was embedded into LR white resin. The resin was polymerized at room temperature. 0.5 em-thick sections were made on an LKB ultratome (Sweden), using glass knives. The sections were stained with a hematoxylin-eosine and analyzed under a light microscope.
For biochemical investigations we scraped the epithelium with a thin spatula, washed off the scrape with physiological solution and centrifugated at 10000 g for 15 min. The concentration of hydrogen peroxide was by the luminescence method. […] After LPS, application of a solution of a composition based on peroxiredoxin Prx VI into the trachea was carried out. Preliminarily the rats were narcotized by intraperitoneal administration of hexenal (70 mg/kg), the animals were fixed on an operating table, and under visual control with the aid of a binocular lens, through a catheter of 1 mm in diameter, peroxiredoxin solution (20 to 100 μl) was introduced into the trachea. The peroxiredoxin concentration was from 0.5 to 5.0 mg/ml. A 0.9% solution of NaCl was used as the solvent. The application of the solution of the composition was carried out once, immediately after the application of LPS. The application of pure solvent, solutions of serum albumin (10 mg/ml) and of glutathione (10 mM) were used as control.
Histological investigation of the trachea was carried out 24 hrs after the LPS application.

Assay [3] has the same test system. Described as above. In kind it is in vivo. The source holds these as a separate data set.

B1: Prx VIhum: recombinant full-size human peroxiredoxin Prx VI, 224 amino acids (SEQ ID NO: 1), produced in E.coli (protein)
chain: MPGGLLLGDVAPNFEANTTVGRIRFHDFLGDSWGILFSHPRDFTPVCTTELGRAAKLAPEFAKRNVKLIALSIDSVEDHLAWSKDINAYNCEEPTEKLPFPIIDDRNRELAILLGMLDPAEKDEKGMPVTARVVFVFGPDKKLKLSILYPATTGRNFDEILRVVISLQLTAEKRVATPVDWKDGDSVMVLPTIPEEEAKKLFPKGVFTKELPSGKKYLRYTPQP
B1: in assay [1], the “protector properties: antioxidant characteristics in protecting glutamine synthetase from inactivation” value is “close to the natural rat peroxiredoxin Prx VIrat”. In addition, in assay [2] (24 hrs after LPS, application immediately after the LPS, FIG. 9B), the “preservation of the tracheal epithelium” value is “Complete preservation of the epithelium”. In addition, the “Integrity of tracheal epithelium (according to histological data)” value in assay [2] (Time after the action of LPS: 1 hour) came to 90%; in assay [2] (Time after the action of LPS: 3 hours), 80%; in assay [2] (Time after the action of LPS: 6 hours), 65%; in assay [3] (Treatment 24 hours later for 5 days and the integrity of epithelium 2 weeks later), 80%. For the same molecule, the “restoration of the epithelial tissue” value in assay [3] (after 2 weeks, single application into the trachea immediately after LPS, FIG. 9) is listed as “almost complete restoration of the epithelial tissue”.

Source of the values: patent publication US8003345B2, “Antioxidant pharmaceutical compound, method for producing polypeptide and method of cure” (Institute of Cell Biophysics Russian Academy of Sciences, priority 2002, dated 2011).
